pKd: −log10 of the molar value.

As usually defined, the pKd is −log10 of the Kd, conventionally taken in molar units. Lower therefore signals a large Kd. The koff is a measure of how fast the partners let go of each other. Higher therefore signals fast dissociation. By kon is commonly meant the second-order rate constant of association. Read a low kon as slow association.

Assay [1] concerns the target human VEGFA165 (human) (UniProt P15692). The assay can be described thus: cell-based or functional assay.
The target is the same in assay [2]. The assay can be described thus: SPR Biacore 8K, VEGFA165 (GenScript) on CM5 at low immobilization, protein as analyte, 1:1 model. A general note: SPR reads the build-up and loss of mass on a sensor chip optically.

Chain of human VEGFA165 (human) (P15692 other isoform, or with tags, fused parts or gaps limits assumed): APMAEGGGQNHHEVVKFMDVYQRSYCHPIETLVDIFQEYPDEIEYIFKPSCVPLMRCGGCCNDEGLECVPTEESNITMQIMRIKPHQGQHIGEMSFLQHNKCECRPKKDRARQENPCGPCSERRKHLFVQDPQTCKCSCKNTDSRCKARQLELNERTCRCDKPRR

Consider “human IgG1 antibody (hIgG1 control) that binds to HIV”, for which the HUVEC proliferation inhibition Maximum inhibition rate (%) in assay [1] was found to be 0%.

For Aflibercept (Fc fusion), in assay [2], the negative-log Kd (pKd) is 10.23, the koff is 9.57e-05 s⁻¹ and the kon came to 1.64e+06 M⁻¹ s⁻¹. In assay [1], this substance displayed an HUVEC proliferation inhibition IC50 of 0.81 nM and an HUVEC proliferation inhibition Maximum inhibition rate (%) of 60%.

Source of the values: patent EP4574846A1.
